Data set [1] can be described thus: Heparin-affinity chromatography (heparin-Sepharose, SDS-PAGE). The class given is binding. Particulars: for Heparin Column Binding: compared to WT rHuADA2, 0.3 mg/mL protein. As for the experimental part: To assess binding of variants to heparin, heparin-affinity chromatography was employed to identify heparin-bound variants. Heparin binding was tested by mixing 35 μL of rHuADA2 WT and variants with 20 μL heparin-Sepharose™ resin (GE Healthcare, Pittsburgh, Pa.; Cat. No. 17-0998-01), followed by incubating at room temperature for 30 min. The mixture was then centrifuged through a 0.22 μm centrifuge filter and the flow-through, containing the unbound protein, was collected for analysis on an SDS-PAGE gel. 35 μL of 1.5 M NaCl was added to heparin-Sepharose resin and incubated at room temperature (RT) for 10 min to elute the remaining heparin-bound protein from the heparin-Sepharose. Samples of purified WT rHuADA2 and tested variants, before and after mixing with the heparin-Sepharose resin, were analyzed by SDS-PAGE to compare the degree of heparin binding.

The nature of data set [2]: Adenosine deaminase (ADA) enzymatic activity assay kit. The format is biochemical. The settings on record: for adenosine deaminase activity mU/mL / ΔA/min, adenosine deaminase activity: protein diluted to 5 μg/mL, serially diluted 2 fold (Table 21); for % activity vs. WT: relative to rHuADA2 WT (Table 21).

B1: R369A: ADA2 variant SEQ ID NO:31 (protein)
chain: IDETRAHLLLKEKMMRLGGRLVLNTKEELANERLMTLKIAEMKEAMRTLIFPPSMHFFQAKHLIERSQVFNILRMMPKGAALHLHDIGIVTMDWLVRNVTYRPHCHICFTPRGIMQFRFAHPTPRPSEKCSKWILLEDYRKRVQNVTEFDDSLLRNFTLVTQHPEVIYTNQNVVWSKFETIFFTISGLIHYAPVFRDYVFRSMQEFYEDNVLYMEIRARLLPVYELSGEHHDEEWSVKTYQEVAQKFVETHPEFIGIKIIYSDHRSKDVAVIAESIRMAMGLRIKFPTVVAGFDLVGHEDTGHSLHDYKEALMIPAKDGVKLPYFFHAGETDWQGTSIDRNILDALMLNTTRIGHGFALSKHPAVATYSWKKDIPIEVCPISNQVLKLVSDLRNHPVATLMATGHPMVISSDDPAMFGAKGLSYDFYEVFMGIGGMKADLRTLKQLAMNSIKYSTLLESEKNTFMEIWKKRWDKFIADVATK
modifications: human ADA2 R366A, mature numbering
B1: in data set [1], the “heparin binding compared to WT” value is listed as “reduced heparin binding” and the “Heparin Column Binding” value is “Reduced”. Besides, in data set [2], the “enzymatic activity relative to WT rHuADA2” value is recorded as “reduced adenosine deaminase activity”; the “adenosine deaminase activity mU/mL” value amounted to 34.3 mU/mL; the “ΔA/min, adenosine deaminase activity” value is on record as 14.9; the “% activity vs. WT” value came out at 44%.

B2: K375A: ADA2 variant SEQ ID NO:22 (protein)
chain: IDETRAHLLLKEKMMRLGGRLVLNTKEELANERLMTLKIAEMKEAMRTLIFPPSMHFFQAKHLIERSQVFNILRMMPKGAALHLHDIGIVTMDWLVRNVTYRPHCHICFTPRGIMQFRFAHPTPRPSEKCSKWILLEDYRKRVQNVTEFDDSLLRNFTLVTQHPEVIYTNQNVVWSKFETIFFTISGLIHYAPVFRDYVFRSMQEFYEDNVLYMEIRARLLPVYELSGEHHDEEWSVKTYQEVAQKFVETHPEFIGIKIIYSDHRSKDVAVIAESIRMAMGLRIKFPTVVAGFDLVGHEDTGHSLHDYKEALMIPAKDGVKLPYFFHAGETDWQGTSIDRNILDALMLNTTRIGHGFALSKHPAVRTYSWKADIPIEVCPISNQVLKLVSDLRNHPVATLMATGHPMVISSDDPAMFGAKGLSYDFYEVFMGIGGMKADLRTLKQLAMNSIKYSTLLESEKNTFMEIWKKRWDKFIADVATK
modifications: human ADA2 K372A, mature numbering
With B2, in data set [1], the “Heparin Column Binding” value is given as “Reduced”. In data set [2], the “adenosine deaminase activity mU/mL” value is given as 81.8 mU/mL; the “ΔA/min, adenosine deaminase activity” value turned out to be 35.5; the “% activity vs. WT” value is listed as 104.8%.

B3: K14E: ADA2 variant SEQ ID NO:15 (protein)
chain: IDETRAHLLLEEKMMRLGGRLVLNTKEELANERLMTLKIAEMKEAMRTLIFPPSMHFFQAKHLIERSQVFNILRMMPKGAALHLHDIGIVTMDWLVRNVTYRPHCHICFTPRGIMQFRFAHPTPRPSEKCSKWILLEDYRKRVQNVTEFDDSLLRNFTLVTQHPEVIYTNQNVVWSKFETIFFTISGLIHYAPVFRDYVFRSMQEFYEDNVLYMEIRARLLPVYELSGEHHDEEWSVKTYQEVAQKFVETHPEFIGIKIIYSDHRSKDVAVIAESIRMAMGLRIKFPTVVAGFDLVGHEDTGHSLHDYKEALMIPAKDGVKLPYFFHAGETDWQGTSIDRNILDALMLNTTRIGHGFALSKHPAVRTYSWKKDIPIEVCPISNQVLKLVSDLRNHPVATLMATGHPMVISSDDPAMFGAKGLSYDFYEVFMGIGGMKADLRTLKQLAMNSIKYSTLLESEKNTFMEIWKKRWDKFIADVATK
modifications: human ADA2 K11E, mature numbering
Take B3: the “heparin binding compared to WT” value in data set [1] is listed as “not attenuated”. For the same molecule, in data set [2], the “enzymatic activity relative to WT rHuADA2” value is listed as “improved enzymatic activity”; the “adenosine deaminase activity mU/mL” value is on record as 89.1 mU/mL; the “ΔA/min, adenosine deaminase activity” value is listed as 38.8; the “% activity vs. WT” value was 114.2%.

B4: K14A/R23A: ADA2 variant SEQ ID NO:55 (protein)
chain: IDETRAHLLLAEKMMRLGGALVLNTKEELANERLMTLKIAEMKEAMRTLIFPPSMHFFQAKHLIERSQVFNILRMMPKGAALHLHDIGIVTMDWLVRNVTYRPHCHICFTPRGIMQFRFAHPTPRPSEKCSKWILLEDYRKRVQNVTEFDDSLLRNFTLVTQHPEVIYTNQNVVWSKFETIFFTISGLIHYAPVFRDYVFRSMQEFYEDNVLYMEIRARLLPVYELSGEHHDEEWSVKTYQEVAQKFVETHPEFIGIKIIYSDHRSKDVAVIAESIRMAMGLRIKFPTVVAGFDLVGHEDTGHSLHDYKEALMIPAKDGVKLPYFFHAGETDWQGTSIDRNILDALMLNTTRIGHGFALSKHPAVRTYSWKKDIPIEVCPISNQVLKLVSDLRNHPVATLMATGHPMVISSDDPAMFGAKGLSYDFYEVFMGIGGMKADLRTLKQLAMNSIKYSTLLESEKNTFMEIWKKRWDKFIADVATK
modifications: human ADA2 K11A/R20A, mature numbering
With B4, the “Heparin Column Binding” value in data set [1] is “Reduced”. Moreover, in data set [2], the “adenosine deaminase activity mU/mL” value stood at 96.9 mU/mL; the “ΔA/min, adenosine deaminase activity” value was determined as 42.1; the “% activity vs. WT” value is recorded as 124.2%.

B5: R369D: ADA2 variant SEQ ID NO:32 (protein)
chain: IDETRAHLLLKEKMMRLGGRLVLNTKEELANERLMTLKIAEMKEAMRTLIFPPSMHFFQAKHLIERSQVFNILRMMPKGAALHLHDIGIVTMDWLVRNVTYRPHCHICFTPRGIMQFRFAHPTPRPSEKCSKWILLEDYRKRVQNVTEFDDSLLRNFTLVTQHPEVIYTNQNVVWSKFETIFFTISGLIHYAPVFRDYVFRSMQEFYEDNVLYMEIRARLLPVYELSGEHHDEEWSVKTYQEVAQKFVETHPEFIGIKIIYSDHRSKDVAVIAESIRMAMGLRIKFPTVVAGFDLVGHEDTGHSLHDYKEALMIPAKDGVKLPYFFHAGETDWQGTSIDRNILDALMLNTTRIGHGFALSKHPAVDTYSWKKDIPIEVCPISNQVLKLVSDLRNHPVATLMATGHPMVISSDDPAMFGAKGLSYDFYEVFMGIGGMKADLRTLKQLAMNSIKYSTLLESEKNTFMEIWKKRWDKFIADVATK
modifications: human ADA2 R366D, mature numbering
Consider B5, for which, in data set [1], the “Heparin Column Binding” value is recorded as “Reduced”. Further, in data set [2], the “adenosine deaminase activity mU/mL” value was 80.2 mU/mL; the “ΔA/min, adenosine deaminase activity” value was 34.9; the “% activity vs. WT” value was 102.8%.

B6: K374A: ADA2 variant SEQ ID NO:19 (protein)
chain: IDETRAHLLLKEKMMRLGGRLVLNTKEELANERLMTLKIAEMKEAMRTLIFPPSMHFFQAKHLIERSQVFNILRMMPKGAALHLHDIGIVTMDWLVRNVTYRPHCHICFTPRGIMQFRFAHPTPRPSEKCSKWILLEDYRKRVQNVTEFDDSLLRNFTLVTQHPEVIYTNQNVVWSKFETIFFTISGLIHYAPVFRDYVFRSMQEFYEDNVLYMEIRARLLPVYELSGEHHDEEWSVKTYQEVAQKFVETHPEFIGIKIIYSDHRSKDVAVIAESIRMAMGLRIKFPTVVAGFDLVGHEDTGHSLHDYKEALMIPAKDGVKLPYFFHAGETDWQGTSIDRNILDALMLNTTRIGHGFALSKHPAVRTYSWAKDIPIEVCPISNQVLKLVSDLRNHPVATLMATGHPMVISSDDPAMFGAKGLSYDFYEVFMGIGGMKADLRTLKQLAMNSIKYSTLLESEKNTFMEIWKKRWDKFIADVATK
modifications: human ADA2 K371A, mature numbering
For B6, the “Heparin Column Binding” value in data set [1] was “Reduced”. Moreover, in data set [2], the “adenosine deaminase activity mU/mL” value was determined as 59.2 mU/mL; the “ΔA/min, adenosine deaminase activity” value was found to be 25.8; the “% activity vs. WT” value was 75.9%.

For the origin of these results see patent US9969998B2, “Compositions of adenosine deaminase-2 (ADA2), variants thereof and methods of using same” (Halozyme, Inc., priority 2014, dated 2018).
